According to publication PMC3849214:

System: c1ccc([C@H]2CO2)cc1
Experiment: colorimetric periodate-coupled diol assay, A290, steady state
Type: biochemical, Streptomyces globisporus
Conditions: pH 8.0, 50 mM sodium phosphate, 25 °C, 3 mM sodium periodate

Substance: SgcF (Streptomyces globisporus; Q237M)
- Km: 4.1 ± 0.8 mM
- kcat/Km: 780 M⁻¹ s⁻¹
